Molecular target: lrrt2_human LRRTM2 (UniProt O43300)
Sequence (O43300 whole entry): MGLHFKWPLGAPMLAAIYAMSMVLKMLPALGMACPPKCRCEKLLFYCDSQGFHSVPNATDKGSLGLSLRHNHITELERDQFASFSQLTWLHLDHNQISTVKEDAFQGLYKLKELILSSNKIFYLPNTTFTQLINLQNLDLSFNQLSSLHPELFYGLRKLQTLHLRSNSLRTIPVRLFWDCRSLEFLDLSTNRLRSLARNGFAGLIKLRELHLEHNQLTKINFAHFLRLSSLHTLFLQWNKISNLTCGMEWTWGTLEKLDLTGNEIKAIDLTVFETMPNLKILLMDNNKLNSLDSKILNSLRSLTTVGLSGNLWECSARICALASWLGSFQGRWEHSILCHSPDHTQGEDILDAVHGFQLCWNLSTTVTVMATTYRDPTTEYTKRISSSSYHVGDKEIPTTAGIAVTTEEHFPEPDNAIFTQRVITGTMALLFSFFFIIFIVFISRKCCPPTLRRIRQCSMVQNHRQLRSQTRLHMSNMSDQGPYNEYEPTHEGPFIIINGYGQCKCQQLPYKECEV

Chain of Neurexin-1-beta (Homo sapiens), P58400-1 D141A (P58400 other isoform, or with tags, fused parts or gaps D141A): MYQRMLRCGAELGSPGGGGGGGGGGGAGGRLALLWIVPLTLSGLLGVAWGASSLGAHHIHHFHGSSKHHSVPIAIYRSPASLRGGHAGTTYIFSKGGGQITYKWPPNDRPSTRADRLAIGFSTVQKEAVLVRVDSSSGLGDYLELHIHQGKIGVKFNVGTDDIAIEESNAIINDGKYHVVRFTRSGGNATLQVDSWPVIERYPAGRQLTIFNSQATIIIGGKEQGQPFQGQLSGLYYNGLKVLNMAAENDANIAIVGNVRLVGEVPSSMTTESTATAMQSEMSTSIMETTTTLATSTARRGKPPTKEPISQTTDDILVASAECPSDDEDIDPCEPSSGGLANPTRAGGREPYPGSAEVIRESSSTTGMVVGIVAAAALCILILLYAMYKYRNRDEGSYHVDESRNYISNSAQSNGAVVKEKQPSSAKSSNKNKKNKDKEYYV

effect of a mutation on the interaction: disrupting interaction strength
Substance: Neurexin-1-beta (Homo sapiens), P58400-1 D141A

— IntAct's records for PubMed 30262834
